From US20260209372A1

Molecular target: recombinant human CD30L protein (human) (UniProt P32971)
Test: ELISA

recombinant human CD30L protein (human), sequence (P32971 63-234 limits assumed): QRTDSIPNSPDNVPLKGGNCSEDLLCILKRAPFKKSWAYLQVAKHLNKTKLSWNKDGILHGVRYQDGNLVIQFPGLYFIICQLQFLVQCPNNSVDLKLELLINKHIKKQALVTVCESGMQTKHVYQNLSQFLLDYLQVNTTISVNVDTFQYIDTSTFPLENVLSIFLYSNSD

B1: Clone 59 (antibody, V domains shown)
VH: QVQLVESGGGVVQPGRSLRLSCAASGFTFSIYGMHWVRQAPGKGLEWVAVIWYDGSNKYYVDSVKGRFTISRDNSKNSLYLQMNSLRAEDTAVYYCAREGNLFDYWGQGTLVTVSS
VL: DIQMTQSPSTLSASVGDRVTITCRASQSISSWLAWYQQKPGKAPKLLIYKASSLESGVPSRFSGSGSGTEFTLTISSLKPDDFATYYCQQYKSYYTFGQGTKLEIK
OD: 0.06 OD
